Data taken from the supplement of paper PMC7125110.
± gives the standard error. This sample holds only a part of the variants without activity.

B1: glmS ribozyme (parent)
chain: AUAAAAGCGCCAGAACUACAGAAAUGUAGUUGACGAGGAGGAGGUUUAUCGAAUUUUCGGCGGAUGCCUCCAAA

Experiments:
Conditions in all cases: with glucosamine-6-phosphate
glucosamine-6-phosphate [1] = variants of: B1; assay: self-cleavage kobs at 40 uM GlcN6P; higher = faster cleavage; RNA array
Outline: (§1)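 Glucosamine-6-phosphate in HEPES/KCl/Mg(OAc)2 buffer, at 40 μM to 10 mM, was flowed over barcoded ribozyme variants transcribed in situ by E. coli RNA polymerase on sequenced MiSeq chips. Tracking was through a hybridised Cy3 probe at 37 °C. kobs, kcat and KM came from exponential decay fits and weighted Michaelis–Menten fits of normalised per-tile medians.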

glucosamine-6-phosphate [2] = variants of: B1; assay: self-cleavage kobs at 10000 uM GlcN6P; higher = faster cleavage; RNA array
Outline: as §1

glucosamine-6-phosphate [3] = variants of: B1; assay: self-cleavage kobs at 640 uM GlcN6P; higher = faster cleavage; RNA array
Outline: as §1

glucosamine-6-phosphate [4] = variants of: B1; assay: self-cleavage kobs at 2500 uM GlcN6P; higher = faster cleavage; RNA array
Outline: as §1

glucosamine-6-phosphate [5] = variants of: B1; assay: self-cleavage kobs at 160 uM GlcN6P; higher = faster cleavage; RNA array
Outline: as §1

Variant | self-cleavage kobs at 40 uM GlcN6P (glucosamine-6-phosphate [1]) | self-cleavage kobs at 10000 uM GlcN6P (glucosamine-6-phosphate [2]) | self-cleavage kobs at 640 uM GlcN6P (glucosamine-6-phosphate [3]) | self-cleavage kobs at 2500 uM GlcN6P (glucosamine-6-phosphate [4]) | self-cleavage kobs at 160 uM GlcN6P (glucosamine-6-phosphate [5])
AUAAAAGCGCCAGAACUACAGAAAUGUAGUUGACGAGGAGAAGGUUUAUAGAAUUUUCGGCGGAUGGCUCCAAA | < 1e-05 s⁻¹ | < 1e-05 s⁻¹ |  |  | 
AUAAAAGCGCCAGAACUACAGAAAUGUAGUUGACGAGGAUGAGGUUUAUAGAAUUUUCGGCGGAUUCCUCCAAA | < 1e-05 s⁻¹ | < 1e-05 s⁻¹ | < 1e-05 s⁻¹ | < 1e-05 s⁻¹ | 
AUAAAAGCGCCAGAACUACAGAAAUGUAGUUGACGAGGAGAAGAUUUAUCGAAUUUUCGGCGGAUGCCUCCAAA | < 1e-05 s⁻¹ | < 1e-05 s⁻¹ |  | < 1e-05 s⁻¹ | < 1e-05 s⁻¹
AUAAAAGCGCCAGAACUACAGAAAUGUAGUUGACGAGGAUGAGGUUUAUCGAAUGUUCGGCGGAUGCCUCCAAA | 0.000102 ± 1.4e-05 s⁻¹ | 0.00228 ± 0.00046 s⁻¹ | 0.000543 ± 9.9e-05 s⁻¹ | 0.00142 ± 0.00023 s⁻¹ | 0.000149 ± 2.2e-05 s⁻¹
AUAAAAGCGCCAGAACUACAGAAAUGUAGUUGACGAGGAUGAGGUUUAUCGAAUUUUCGGCGUAUGCCUCCAAA | < 1e-05 s⁻¹ | < 1e-05 s⁻¹ |  |  | < 1e-05 s⁻¹
AUAAAAGCGCCAGAACUACAGAAAUGUAGUUGACGAGGAGAAGGUUUAUCGAAUUUUGGGCGGAUGCCUCCAAA | < 1e-05 s⁻¹ | < 1e-05 s⁻¹ | < 1e-05 s⁻¹ | < 1e-05 s⁻¹ | < 1e-05 s⁻¹
AUAAAAGCGCCAGAACUACAGAAAUGUAGUUGACGAGGAAGAGGUUUAUCGAAUUUUCGGCGGAUGCCACCAAA | < 1e-05 s⁻¹ | < 1e-05 s⁻¹ | < 1e-05 s⁻¹ | < 1e-05 s⁻¹ | 
AUAAAAGCGCCAGAACUACAGAAAUGUAGUUGACGAGGAUGAGUUUUAUCGAAUUUUCGGCGGAUGCCUCCAAA | < 1e-05 s⁻¹ |  | < 1e-05 s⁻¹ |  | < 1e-05 s⁻¹
AUAAAAGCGCCAGAACUACAGAAAUGUAGUUGACGAGGACGAGGUUUAUGGAAUUUUCGGCGGAUGCCUCCAAA | < 1e-05 s⁻¹ | < 1e-05 s⁻¹ |  | < 1e-05 s⁻¹ | < 1e-05 s⁻¹
AUAAAAGCGCCAGAACUACAGAAAUGUAGUUGACGAGGAUGAGGUUUAUCGAAUUUUCGGCCGAUGCCUCCAAA | < 1e-05 s⁻¹ | < 1e-05 s⁻¹ | < 1e-05 s⁻¹ |  | < 1e-05 s⁻¹
AUAAAAGCGCCAGAACUACAGAAAUGUAGUUGACGAGGAAGAGGUUUAUCGAAUGUUCGGCGGAUGCGUCCAAA | < 1e-05 s⁻¹ |  |  |  | 
AUAAAAGCGCCAGAACUACAGAAAUGUAGUUGACGAGGAUGAGGUUUAUCGCAUUUUCGGCGGAUGCCUCCAAA | < 1e-05 s⁻¹ |  |  |  | < 1e-05 s⁻¹
AUAAAAGCGCCAGAACUACAGAAAUGUAGUUGACGAGGACGAGGUUUAUCGAAUUUUCGGCGGAUGACUCAAAA | 3.18e-05 ± 1.4e-05 s⁻¹ | 0.000726 ± 0.00011 s⁻¹ |  |  | 
AUAAAAGCGCCAGAACUACAGAAAUGUAGUUGACGAGGAAGAGGUUUAUCGAAUUUGCGGCGGAUGCCUCCAAA | < 1e-05 s⁻¹ |  | < 1e-05 s⁻¹ | < 1e-05 s⁻¹ | 
AUAAAAGCGCCAGAACUACAGAAAUGUAGUUGACGAGGAUGAGGUUUAUCGAAUUUUCGGCGGAUGCAUCCAAA | < 1e-05 s⁻¹ | < 1e-05 s⁻¹ | < 1e-05 s⁻¹ | < 1e-05 s⁻¹ | < 1e-05 s⁻¹
AUAAAAGCGCCAGAACUACAGAAAUGUAGUUGACGAGGAGAAGGUUUAUCGAAUUUUCGGCGGCUGCCUCCAAA | < 1e-05 s⁻¹ | < 1e-05 s⁻¹ | < 1e-05 s⁻¹ | < 1e-05 s⁻¹ | < 1e-05 s⁻¹
AUAAAAGCGCCAGAACUACAGAAAUGUAGUUGACGAGGAGAAGGUUUAUCGAAUUUUCAGCGGAUGCCUCCAAA | < 1e-05 s⁻¹ |  |  |  | < 1e-05 s⁻¹
AUAAAAGCGCCAGAACUACAGAAAUGUAGUUGACGAGGAGAAGGUUUAUCGAAUUUUCUGCGGAUGCCUCCAAA | < 1e-05 s⁻¹ | < 1e-05 s⁻¹ | < 1e-05 s⁻¹ |  | 
AUAAAAGCGCCAGAACUACAGAAAUGUAGUUGACGAGGACGAGGUUUAUCAAAUUUUCGGCGGAUGCCUCCAAA | < 1e-05 s⁻¹ | < 1e-05 s⁻¹ | < 1e-05 s⁻¹ | < 1e-05 s⁻¹ | 
AUAAAAGCGCCAGAACUACAGAAAUGUAGUUGACGAGGACCAGGUUUAUCGAAUUUUCGGCGGAUGCCUCCAAA | < 1e-05 s⁻¹ | 6.89e-05 ± 1.3e-05 s⁻¹ |  |  | 
AUAAAAGCGCCAGAACUACAGAAAUGUAGUUGACGAGGAAGAGGUUUAUCGAAAUUUCGGCGGAUGCCUCCAAA | 0.000696 ± 0.00017 s⁻¹ |  | 0.000502 ± 0.00015 s⁻¹ | 0.00212 ± 0.00077 s⁻¹ | 
AUAAAAGCGCCAGAACUACAGAAAUGUAGUUGACGAGGAUGAGGUUUACCGAAUUUUCGGCGGAUGCCUCCAAA | < 1e-05 s⁻¹ | < 1e-05 s⁻¹ | < 1e-05 s⁻¹ |  | < 1e-05 s⁻¹
AUAAAAGCGCCAGAACUACAGAAAUGUAGUUGACGAGGAUGAGGUUUAUCAAAAUUUCGGCGGUUGCCUCCAAA | < 1e-05 s⁻¹ |  |  |  | 
